Test: soluble on expression in E. coli; label from the status in PepcDB or PDB records

Row | Sequence | soluble on expression in E. coli
1 | MDRAPVSSRRPCASQDPQRRPLCREEEGATPTALAVSSTTLGGRGGAHMCSCTVSSPNREGTCSSNILSYTLTHSTSPVVPWGCGRQPNHLQAPPRLAPLTESPIVARGFGPPPIAPAPLALAESSEHALCAPQLTFTAGAPGGTCLCSARSALPLLPFSSVLTASQRATPVPVWRRSKPLTRLPATTLGPTLSGNSGSPDDVVVALSDASMPKGETGEWMCAEASLQPSAAEPTPNAGSAVRHVDYQAAATQTGCVGSSLAAKVATESSQMALPDALAHLVEPPQGASAPSKTATDQLVNAPVGDIELRKRREEDSSDARASLSSALSSLGHPSNHNVHSSVDGVLWAHEAPEQPAYAHQHQLPAIFSQLVQDLLAAEPRADVEGDDDLLERWIQSWFENRCMTQPLQQSRSNSMKHLRTLQEAAVGAIANGAYVQGARSSNYVEPREKPAVDKNVGDATHAGPAARPAAGPSTTISASAAVTRTTTKSASAQLFPSSTAASPPHQYVPLTVEYSCSTLQSRMTSGASQRATSPPKPPQAQPLPVSPGTLHTAGASSTPGPPPHSAADGGGGVLAAVVGLSSPPQQPQQQPQPAKPLSGGPHLPAPASTRSMSSKQTVVAAAALAGGGEGDKGASGARPKLATTACAVFAHSSSSSAPKEAAHPHE | soluble
2 | MSLSIRLHIWGDYACFTRPEMKVERVSYDVMTPSAARGILEAIHWKPAIRWHIDRLHVLKPIRFQSIRRNEVGAKASASNAKSAMKKGSTEGLGIVVDENRQQRAAMVLTNVAYVIEAHFTMTEKAGPEDTPAKHLSMFNRRAAKGQCFHRPCLGTREFAAEFALLGENDPLPEAKPRLEVRDDDFGWMLHDIDFASGRNESHFFRAVMKDGVIEVPPFKSGEVVKEGHHHHHH | soluble
3 | MVQDQIRYDILVQDALRGVIRKVLSEVAKAGLPGSHHFFITFLTNAPGVKISTRLKSRYPEQMTIVLQHQFRDLNVSETAFEVTLSFREVSEKLVIPFHSIQVFYDPVAAFEAAFDLPSNLNSKEGENLENIASTPVILSDTQKKEKKFPKEQISKTNKDSSNNDTKQSADVVSLDSFRKKLEHHHHHH | soluble
4 | MSLFFRDVIGQEEAKYRLIQEVSEGRIPHAQLFCGPEGVGKFPLALAYARYLSCTNRSDTDACGVCPSCVKFNKLVHPDVHFVFPVVKNGRSDDYIVEWRKLVLNNPYFTINHWLNEINAENAQAVIYTKESDEIMKKLSLKSSEGGFKITLLWLPEKMQQACANKLLKLLEEPPEKTIFLLVSEAPDLILQTILSRTQRFNLRKIEEECMAEALQSKYGVQQATSISIAHLANGNFIKALETIHLNEEGHHHHHH | soluble
5 | MARFIARTKLNIDDIKEVDEYKALIPENNQYEELKKAIKEQGFLFPVIVNQNRELIDGYTRLRIARELGLTEIPAEVYETGGREEELDIIASLNLKRRHLTKDELVLLIDKIHEMKKRLKKDNIEEQNSGTGARISAIDKENISKNSVTEESREIREELKKLVPDVQINEDTIRKYLQIKKEVPWLVQYIGDEKKNKIGIRKAYEIYTLLSKKNLLDLDKRIPKTELTKLITDKEGRKILERDDLLQLILDHKMAVSQAINKLKTEEKIKQSKKKSRVKTEDEYAETDEEEEDETEEGQRELDENEEYPLLEEWQKAKEEEKQEAEQQLTPQLNVSPNSNTTQVTLEFSNVLKELSNKGFTKLDFNTDVVIAKINDKYYAILLEALKSLERGSKQYKELAEFLVSNNLAVYDPEEDNYIISWRSLNCS | soluble
6 | AKKLKKEYLDWYNQILEFSNLSNNSVKIDTPFKDNSLDNLKIYALYDQSRDMITLTDDGYTIFGLENNGVSINKFKKRKKIFEEHLSAYGIKYNDKTHEIFVQTNFKNFNKSKHNLLQCLIFVNDMYLLSNPKSQNIFTEDVANKLDEHNIYYGRDIPIIGSSGVVHNFDFFISAKKNQKEKFINVFSNPNNSMIIKSKITDAMQAKKIKRHRQNEFIFILNDSKKEINEHNKNLLHENYISTIDYSELDEKIGLL | not soluble
7 | MWLWRKLWGIGGTMSRNTEATDDVKTWTGGPLNYKEGFFTQLATDELAKGINEEVVRAISAKRNEPEWMLEFRLNAYHAWLEMEEPHWLKAHYDKLNYQDYSYYSAPSCGNCDDNCASEPGAVQQTGANAFLSKEVEAAFEQLGVPVREGKEVAVDAIFDSVSVATTYREKLAEQGIIFCSFGEAIHDHPELVRKYLGTVVPGNDNFFAALNAAVASDGTFIYVPKGVRCPMELSTYFRINAEKTGQFERTILVADEDSYVSYIEGCSAPVRDSYQLHAAVVEVIIHKNAEVKYSTVQNWFPGDNNTGGILNFVTKRALCEGENSKMSWTQSETGSAITWKYPSCILRGDNSIGEFYSVALTSGHQQADTGTKMIHIGKNTKSTIISKGISAGHSQNSYRGLVKIMPTATNARNFTQCDSMLIGANCGAHTFPYVECRNNSAQLEHEATTSRIGEDQLFYCLQRGISEEDAISMIVNGFCKDVFSELPLEFAVEAQKLLAISLEHSVG | soluble
8 | MASDTPGFYMDKLNKYRQMHGVAITYKELSTSGPPHDRRFTFQVLIDEKEFPEAKGRSKQEARNAAAKLAVDILDNENKVDCHT | soluble
9 | MSLGNSAGFGSVGDNSSGGSGANRDANNRPSWFQETARRTIPNTVLRREVKSSSNSGEDDNGNRGDSTSTGFNTLTFGAKKHMLLGSSNVSTGGNDHMNPLLMDNSEAPPTVSISDWKREEGLFDLRNTRNENTINTIGTPTFISPISREKSEVSLFDSNSQSRSSSASSIGSESETGNAVVVFGYREAITKQILAYFAQFGEILEDLESELGDTETMRTPGYFFQQAPNRRRISREHGRTWTKLTYANHSSYLRALREHGTIYCGAAIGCVPYKHELISELSRDTYNSMNDVKQTNSISTNQLTQHNQSEVPKSNQTFETKPTNETERNQIKTPSAFGSDNKGNGSISSGRTKRRLSIKDGSSLFLSGTEGHHHHHH | soluble
10 | MGQLPPRARAFFAAQRPLRVLMPGCGSAADLPPLLAMGHDVLAVDFSEAAIELAARQWPEAAGRLLLADFFQLQMPAFDCLFERAFLCALPVGMRSQYAERVAALIAPGGALAGVFFVADTERGPPFGMQAEALRELLSPWFELEEDLALDESVAVFRNRERWMVWRRRGLEHHHHHH | not soluble
11 | MMKALILAGGSGERFWPLSTPETPKQFLKLFGNKSLMRWTFERVLEEMDPKDVIVVTHKDYVERTKKELPELPDENIIAEPMKKNTAPACFIGTKLADDDEPVLVLPADHRIPDTKKFWKTVKKALDALEKYDGLFTFGIVPTRPETGYGYIEIGEELEEGVHKVAQFREKPDLETAKKFVESGRFLWNSGMFLWKAREFIEEVKVCEPSIYENLKDVDPRNFEELKKAYEKVPSISVDYAVMEKSKKVRVVKADFEWSDVGNWSSVREIEGYTEESDEVILVDSDRVFVKTHNKPIAVVGLSDVIVIDTPNGILICKEEYAQKVREVVKKLFRTS | soluble
12 | MGKFFFFGFVGLLLSWGALYYRYSDEKNTSARKYRFDPPPALVGNLFINAGLEKAEHILDGKIVGPESMVVDDEAIYVSVNDAKVLKIVDGRVVSKASYSEKSKFFPDCGHFDTEPECGRPLGIRRLVAGKPKFVVCDAYLGVYIVDFTDEQNPISTQILDSKVPIDGLKPRFLNDLDVISEDELIISDSSTRHDRRHFMAAILEHQADGRIFHLKISTKSVKVLADKLYFPNGIQLTEDKKSVIFAECSMARIKKLTIASKKVEMFAANLPGLPDNIRSSGRGTYWVGLTATRSATHPSLLDRLGSLPGIRQFLVDIVPGPYWKPLLGLFKNPHSIIIELDSVGKIVRSLHDVTGKHVGDASQVTEHNGHLYIGSFADHYIAKVKL | not soluble
13 | MGSSHHHHHHSSGRENLYFQGMHYQPKQDLLNDRIILVTGASDGIGREAAMTYARYGATVILLGRNEEKLRQVASHINEETGRQPQWFILDLLTCTSENCQQLAQRIVVNYPRLDGVLHNAGLLGDVCPMSEQNPQVWQDVMQINVNATFMLTQALLPLLLKSDAGSLVFTSSSVGRQGRANWGAYAASKFATEGMMQVLADEYQQRLRVNCINPGGTRTAMRASAFPTEDPQKLKTPADIMPLYLWLMGDDSRRKTGMTFDAQPGRKPGISQ | soluble
14 | MIYLKSFERNIRLINMKVVYDDVRVLKDIIQALARLVDEAVLKFKQDSVELVALDRAHISLISVNLPREMFKEYDVNDEFKFGFNTQYLMKILKVAKRKEAIEIASESPDSVIINIIGSTNREFNVRNLEVSEQEIPEINLQFDISATISSDGFKSAISEVSTVTDNVVVEGHEDRILIKAEGESEVEVEFSKDTGGLQDLEFSKESKNSYSAEYLDDVLSLTKLSDYVKISFGNQKPLQLFFNMEGGGKVTYLLAPKV | soluble
15 | MGTVMIRNVYKGVHNMKLENGWETSFLEVVQNSEFKKEALLSQLLCQDSEEVEELVDDYGYEELVEREHDDELAEILGEELFSEMERQVFLSSNPEEKLISFVNGLGFHVLDWIVLLETEFGIDSANFTSDAVKVLEKRFRQFPYIEDKTIFDMTFGESMDVLESVTGLQLKEKMNV | not soluble
16 | GPGSMAKHYKAIFAMSYEAELYAHLQASQRFNAGADAAVVLHADSDEAMRRHLGISIDPINGTNCCVGGVWQAPMTLVGIALDGVPIAGVMNRIFDYPLTCTYGPAATEPQEKACVPGLAVVLNTPTPASPFVVFDGGLVPAPGQMEQQLECTCETPLAVCRSSTTKEVFLQRLLTQLEPCNAVYSRGAGYKQYHLLKKMLTGRHVAHEAITPADIFVCPPGTIEKWDCCVVHAFLYALGGEIFDQNGVPIRYPLVGTYGAATTSLSEIAALTDGLVAVTPYAMHEVARRLGWTLTLAP | not soluble
17 | MGSDKIHHHHHHMLKQLILENWKSFRYAELPLDPLTVLIGTNASGKSNVVEALEFLQRIARGENVEAALAGDKTLVSIRGGVEWAARKQETGFTLQTLIQGEDETQDYLYTVQIQTIPEVRVIQEQITFENINQDNVVYNKKHLTVKNPIFPTKSGLENLELHVDINDLMQFFPPDQNILLGDKDFLETLNNVLLPFRNKACKFVVASLKNIFILNPIASNMRNYSRLADDLESDASNIAGVLAALPDDLKLEIELTLSTYIKDLPEGDIKKVWAEKVGRFGTDAMLYCQEEWKPGHSTDIDARSMSDGTLRFLAILTALLTRPEGSQIVIEEIDNGLHPSRAKLLVKILREIGSKRNIDILLTTHNPALLDALGPDTVPFVVVAHRDAETGESKLTLLENIDNFSKLFASYSLGEMTTKGAIERSLSHSE | not soluble
18 | MKRISTLFLLATLGLAAGTAQAAQPDAGLTGCAAKRSAIENQLKIARDHGNSDQVGGLEEALRGVDNCTDASLRKEREQKVLDARHEVAQREKDLKKAEKKGDAEKINKRKDKLAESRKELQEAVDALDR | not soluble
19 | MNKRENPIYKVIFLNQGQVFEMYAKQIYQSDLWGFLEIEEFVFGERTQVVVDPSEEKLKAQFEGVLRSFVPMHAIVRIDEVERLGTPKISEAKGAGNVMPFPMPMPGKSD | not soluble
20 | MSLSESVIADFVGKFNSEVAGRGDPIRGRVVLSQKRLVLAASEDDKLTIPLDSIFDIAVGQVPPDLGDFFDSTVTIAFEHRGKRLVAAIEAGDEKIEKFGTVLFKAIINGTETTVKERARVGGRVTEESFKTAKLFLTPGNVEFRRSDGSFNVDLKTVSDFDRNTREINGKGRPVLTVRHMKDGTAMTTLAAMASNRKMSILGRYLRREYAELMEEIEDVDLTKDKKEVLVAMYSTGDMDGMPLASILGKDSSQVSMILQDLAADGLVQDGSDGPTLTPTGKVVASRHLEDVNAEGHHHHHH | not soluble
21 | MREGWRDEPAARGGCQCGRVRYSVPAGPKKSTVCHCRMCQRATGNAFAPLLEVPTADVVWEGTPAVWASSSVAERGFCATCGTPLFYRSDETTELMAGTLAGFDFRPIANHGIEGRVGWLGGLAALPDRATRPELLSRVVSHQAPDE | not soluble
